# Data: patent US20030134779A1, “Method and composition for treatment and/or prevention of antibiotic-resistant microorganism infections” (priority 2002, published 2003)
# Legend:
# [1] = system: β-lactamase activity of S. aureus SHY97-4320; assay: β-lactamase activity, nitrocefin assay, human LF; assay type: cell-based, Staphylococcus aureus
# Protocol: Penicillin G was purchased from Novopharm Limited (Toronto, Ontario, Canada). […] Antibiotic stock solutions were always freshly prepared and diluted to the desired concentration in Mueller Hinton broth (MHB) medium (Difco Laboratories, Detroit, MI). β-Lactamase activity was measured using a quantitative spectrophotometric assay with the chromogenic cephalosporin nitrocefin. Bacterial cells were first exposed to penicillin and/or LF during 4 and 22-h in broth. At each time point, the number of cfu/ml were determined and cells aliquots were centrifuged.
# The pellets were suspended in 10 mM HEPES buffer (pH 7.4) to an OD415 nm of 0.4 for PC-1 and 4 for strain SHY97-4320. Nitrocefin (100 μM) was added to 20 μl of cells in a final volume of 200 μl. Hydrolysis was measured at 486 nm on a Spectra Max 250 Microplate Spectrophotometer System of Molecular Device (Fisher Scientific, Ottawa, Canada). β-Lactamase activity was expressed as ΔO.D.486 nm/min and corrected for bacterial OD.
# [2] = system: β-lactamase activity of S. aureus PC-1; assay: β-lactamase activity, nitrocefin assay, human LF; assay type: cell-based; conditions: incubation for 4 h
# Chain of β-lactamase activity of S. aureus PC-1 (P00807 25-281): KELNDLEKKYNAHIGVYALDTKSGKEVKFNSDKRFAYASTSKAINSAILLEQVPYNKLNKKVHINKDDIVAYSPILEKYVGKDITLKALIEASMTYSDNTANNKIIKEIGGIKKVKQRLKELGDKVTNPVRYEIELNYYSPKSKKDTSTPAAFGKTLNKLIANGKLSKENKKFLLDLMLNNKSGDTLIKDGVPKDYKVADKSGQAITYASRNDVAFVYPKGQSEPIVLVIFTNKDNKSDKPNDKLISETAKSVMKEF
# Chain of β-lactamase activity of S. aureus SHY97-4320 (P00807 25-281): as above
molecule,measurement,setting,value
"human LF: Human LF (Sigma) (protein, UniProt P02788 20-710, looked up) Lactotransferrin: GRRRSVQWCAVSQPEATKCFQWQRNMRKVRGPPVSCIKRDSPIQCIQAIAENRADAVTLDGGFIYEAGLAPYKLRPVAAEVYGTERQPRTHYYAVAVVKKGGSFQLNELQGLKSCHTGLRRTAGWNVPIGTLRPFLNWTGPPEPIEAAVARFFSASCVPGADKGQFPNLCRLCAGTGENKCAFSSQEPYFSYSGAFKCLRDGAGDVAFIRESTVFEDLSDEAERDEYELLCPDNTRKPVDKFKDCHLARVPSHAVVARSVNGKEDAIWNLLRQAQEKFGKDKSPKFQLFGSPSGQKDLLFKDSAIGFSRVPPRIDSGLYLGSGYFTAIQNLRKSEEEVAARRARVVWCAVGEQELRKCNQWSGLSEGSVTCSSASTTEDCIALVLKGEADAMSLDGGYVYTAGKCGLVPVLAENYKSQQSSDPDPNCVDRPVEGYLAVAVVRRSDTSLTWNSVKGKKSCHTAVDRTAGWNIPMGLLFNQTGSCKFDEYFSQSCAPGSDPRSNLCALCIGDEQGENKCVPNSNERYYGYTGAFRCLAENAGDVAFVKDVTVLQNTDGNNNEAWAKDLKLADFALLCLDGKRKPVTEARSCHLAMAPNHAVVSRMDKVERLKQVLLHQQAKFGRNGSDCPDKFCLFQSETKNLLFNDNTECLARLHGKTTYEKYLGPQYVAGITNLKKCSTSPLLEACEFLRK",β-lactamase activity,"[1]; 1 mg/ml human LF added at the same time as 8 μg/ml penicillin G, P<0.001",an important reduction of the β-lactamase activity
same,β-lactamase activity,[1]; human LF 1 mg/ml alone,no β-lactamase activity
same,reduction of β-lactamase activity,[2],50%
